From patent US8815295B1, “Anti respiratory syncytial virus peptide functionalized gold nanoparticles” (Alabama State University, priority 2011, dated 2014)
Peptide text beside a SMILES is read from it.

Tested on: human epidermoid cancer (HEp-2) cells
Assay: MTT cell viability (cytotoxicity) assay
Conditions: 24 and 48 hours, concentrations up to 50 μg/ml
Protocol: The peptides and carboxylated gold nanoparticles were tested for cytotoxic effects on human epidermoid cancer (HEp-2) cells. Cell viability was assessed by measuring cell concentration of a tetrazolium salt (3-(4,5 dimethyl-2-yl)-5-(3-carboxy-methoxyphenyl)-2-(4-sulfophenyl)-2H-tetrazolium) […]. If cells are viable the mitochondria will reduce the MTT. The cells were grown overnight in minimal essential medium (MEM) supplemented with L-glutamine, Penicillin, streptomycin, and kanamycin. 2.7×10^5 cells/well in 100 μl were seeded into 96-well plates in MEM. Cells were allowed to grow overnight in an incubator at 37° C., with a 5% CO2 humidified atmosphere, until the carboxylated gold nanoparticles were added. […] Treated cells were further incubated at 37° C., 5% CO2 for 24, and 48 hours. At the end of the corresponding incubation time, 15 μl of MTT dye was added into each well and the plates were allowed to incubate for the next 4 hours in the dark. The reaction was then stopped with 100 μl of stop solution. The absorbance of the media was measured at 570 nm on a TECAN Sunrise enzyme-linked immunosorbent assay plate reader (TECAN, US Inc., Durham, N.C., USA). Non-treated cells in growth media were used as a control.

Compound	effect on cell viability
VFPSDEFDASISQVNEKINQSLAFIRKSDLLHNVNAGKK (respiratory syncytial virus) [RF482]	no significant effect
CC[C@H](C)[C@H](NC(=O)[C@H](Cc1ccccc1)NC(=O)[C@H](C)NC(=O)[C@H](CC(C)C)NC(=O)[C@H](CO)NC(=O)[C@H](CCC(N)=O)NC(=O)[C@H](CC(N)=O)NC(=O)[C@@H](NC(=O)[C@H](CCCCN)NC(=O)[C@H](CCC(=O)O)NC(=O)[C@H](CC(N)=O)NC(=O)[C@@H](NC(=O)[C@H](CCC(N)=O)NC(=O)[C@H](CO)NC(=O)[C@@H](NC(=O)[C@@H](N)CO)[C@@H](C)CC)C(C)C)[C@@H](C)CC)C(=O)N[C@@H](CCCNC(=N)N)C(=O)N[C@@H](CCCCN)C(=O)N[C@@H](CO)C(=O)N[C@@H](CC(=O)O)C(=O)O [RF491] (H-SISQVNEKINQSLAFIRKSD-OH)	no significant effect
